Measurements published in patent US20210261648A1 (published 2021).
Where a chain is given by its changes, count along the chain named.

T1: FcγRIIb (human, UniProt P31994 43-217)
T1 construct: extracellular domain; also called FcgRIIb; CD32B
T1 sequence (looked up): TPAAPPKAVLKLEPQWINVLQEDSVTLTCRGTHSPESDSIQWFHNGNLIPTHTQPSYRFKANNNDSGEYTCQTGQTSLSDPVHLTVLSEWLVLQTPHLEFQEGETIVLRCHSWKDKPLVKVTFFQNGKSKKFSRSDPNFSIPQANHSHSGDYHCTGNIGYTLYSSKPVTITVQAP

T2: FcγRIIa type R (human, UniProt P12318 34-217)
T2 chain: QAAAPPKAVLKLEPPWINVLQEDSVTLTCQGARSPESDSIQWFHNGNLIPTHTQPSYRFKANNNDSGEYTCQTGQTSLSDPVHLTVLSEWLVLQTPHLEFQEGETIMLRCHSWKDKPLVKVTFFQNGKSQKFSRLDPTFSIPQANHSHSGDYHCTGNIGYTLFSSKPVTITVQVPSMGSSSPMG

T3: FcγRIIa type H (human, UniProt P12318 34-217)
T3 construct: extracellular domain; also called FcγRIIaH; FcgRIIaH
T3 sequence (looked up): T2 chain with R134H

B1: IL6R-BP498/IL6R-L (antibody, human IgG1, kappa)
heavy: QVQLQESGPGLVKPSETLSLTCAVSGHSISHDHAWSWVRQPPGEGLEWIGFISYSGITNYNPSLQGRVTISRDNSKNTLYLQMNSLRAEDTAVYYCARSLARTTAMDYWGEGTLVTVSSASTKGPSVFPLAPSSKSTSGGTAALGCLVKDYFPEPVTVSWNSGALTSGVHTFPAVLQSSGLYSLSSVVTVPSSSLGTQTYICNVNHKPSNTKVDKKVEPKSCDKTHTCPPCPAPDLLGDDSVFLFPPKPKDTLMISRTPEVTCVVIDVAEEDGEVKFNWYVDGVEVHNAKTKPREEQYNSTYRVVSVLTVLHQDWLNGKEYKCKVSNKALPRPIEKTISKAKGQPREPQVYTLPPSRDELTKNQVSLTCLVKGFYPSDIAVEWESNGQPENNYKTTPLVLDSDGSFFLYSKLTVDKSRWQQGNVFSCSVMHEALHNHYTQESLSLSP
light: not shown
notes: Alterations in EU numbering, introduced into IL6R-B3
B2: IL6R-BP503/IL6R-L (antibody, human IgG1, kappa)
heavy: B1 heavy with Y298D, A329G, L398M
light: not shown
notes: as for B1
B3: IL6R-BP502/IL6R-L (antibody, human IgG1, kappa)
heavy: B1 heavy with Y298D, A329G, L398P
light: not shown
notes: as for B1
B4: IL6R-BP538/IL6R-L (antibody, human IgG1, kappa)
heavy: B1 heavy with D235E, A269S, L398P
light: not shown
notes: as for B1
B5: IL6R-BP510/IL6R-L (antibody, human IgG1, kappa)
heavy: B1 heavy with D235E, E274P, L398P
light: not shown
notes: as for B1
B6: IL6R-BP536/IL6R-L (antibody, human IgG1, kappa)
heavy: B1 heavy with A269S, Y298D, A329G, L398M
light: not shown
notes: as for B1
B7: IL6R-BP539/IL6R-L (antibody, human IgG1, kappa)
heavy: B1 heavy with D235E, A269G, E274P, Y298D, L398P
light: not shown
notes: as for B1
B8: IL6R-BP511/IL6R-L (antibody, human IgG1, kappa)
heavy: B1 heavy with D235E, E274P, Y298D, L398P
light: not shown
notes: as for B1
B9: IL6R-BP499/IL6R-L (antibody, human IgG1, kappa)
heavy: B1 heavy with Y298D
light: not shown
notes: as for B1
B10: IL6R-BP533/IL6R-L (antibody, human IgG1, kappa)
heavy: B1 heavy with A269G, Y298D
light: not shown
notes: as for B1

The binders below were run against T1, FcγRIIb (assay: SPR (Biacore), captured antibody, soluble FcγR).

| Kd | Binder |
| --- | --- |
| 1.7 nM | B1 |
| 1.7 nM | B2 |
| 3.7 nM | B3 |
| 5.3 nM | B4 |
| 3.8 nM | B5 |
| 3 nM | B6 |
| 8.4 nM | B7 |
| 3.5 nM | B8 |
| 1.5 nM | B9 |
| 4.1 nM | B10 |

These binders were tested against T4, FcγRIa (human, UniProt P12314 16-292) (assay: SPR (Biacore), captured antibody, soluble FcγR).
T4 construct: Whole entry named; also called FcgRIa; CD64A
T4 sequence (P12314 16-292): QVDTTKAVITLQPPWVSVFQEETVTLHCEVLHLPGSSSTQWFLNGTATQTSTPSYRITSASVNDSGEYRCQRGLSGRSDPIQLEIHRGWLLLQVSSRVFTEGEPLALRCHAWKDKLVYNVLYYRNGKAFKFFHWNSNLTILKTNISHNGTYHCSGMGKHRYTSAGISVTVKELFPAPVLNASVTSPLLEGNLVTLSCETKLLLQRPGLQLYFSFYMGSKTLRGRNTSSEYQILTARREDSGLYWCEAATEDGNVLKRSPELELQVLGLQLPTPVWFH

| Kd | Binder |
| --- | --- |
| 1.3 nM | B1 |
| 1.2 nM | B2 |
| 2.1 nM | B3 |
| 55 nM | B4 |
| 6 nM | B5 |
| 8.9 nM | B6 |
| 64 nM | B7 |
| 6 nM | B8 |
| 1.2 nM | B9 |
| 7.7 nM | B10 |

Biological target: T2, FcγRIIa type R
Assay: SPR (Biacore), captured antibody, soluble FcγR

| Kd | Binder |
| --- | --- |
| 51 nM | B1 |
| 57 nM | B2 |
| 110 nM | B3 |
| 200 nM | B4 |
| 170 nM | B5 |
| 79 nM | B6 |
| 330 nM | B7 |
| 180 nM | B8 |
| 49 nM | B9 |
| 120 nM | B10 |

Each binder was assayed against T3, FcγRIIa type H (assay: SPR (Biacore), captured antibody, soluble FcγR).

| Kd | Binder |
| --- | --- |
| 930 nM | B1 |
| 860 nM | B2 |
| 1300 nM | B3 |
| 3000 nM | B4 |
| 4000 nM | B5 |
| 1300 nM | B6 |
| 5600 nM | B7 |
| 4300 nM | B8 |
| 1000 nM | B9 |
| 2600 nM | B10 |

These binders were tested against T1, FcγRIIb (assay: SPR (Biacore); parent = IL6R-B3/IL6R-L).

| KD(IIb) of the parent polypeptide/KD(IIb) of the altered polypeptide | Binder |
| --- | --- |
| 1880 fold | B1 |
| 1810 fold | B2 |
| 840 fold | B3 |
| 587 fold | B4 |
| 807 fold | B5 |
| 1040 fold | B6 |
| 369 fold | B7 |
| 891 fold | B8 |
| 2120 fold | B9 |
| 756 fold | B10 |

Biological target: T2, FcγRIIa type R
Assay: SPR (Biacore); parent = IL6R-B3/IL6R-L

| KD(IIaR) of the parent polypeptide/KD(IIaR) of the altered polypeptide | Binder |
| --- | --- |
| 21.7 fold | B1 |
| 19.4 fold | B2 |
| 10.1 fold | B3 |
| 5.4 fold | B4 |
| 6.6 fold | B5 |
| 13.9 fold | B6 |
| 3.4 fold | B7 |
| 6.3 fold | B8 |
| 22.3 fold | B9 |
| 9.2 fold | B10 |
